The chains are these.
B1: ATGL (PNPLA2, patatin-like phospholipase domain-containing protein 2), human, full length / G0S2 (G0/G1 switch protein 2), human (parent)
chain 1: MFPREKTWNISFAGCGFLGVYYVGVASCLREHAPFLVANATHIYGASAGALTATALVTGVCLGEAGAKFIEVSKEARKRFLGPLHPSFNLVKIIRSFLLKVLPADSHEHASGRLGISLTRVSDGENVIISHFNSKDELIQANVCSGFIPVYCGLIPPSLQGVRYVDGGISDNLPLYELKNTITVSPFSGESDICPQDSSTNIHELRVTNTSIQFNLRNLYRLSKALFPPEPLVLREMCKQGYRDGLRFLQRNGLLNRPNPLLALPPARPHGPEDKDQAVESAQAEDYSQLPGEDHILEHLPARLNEALLEACVEPTDLLTTLSNMLPVRLATAMMVPYTLPLESALSFTIRLLEWLPDVPEDIRWMKEQTGSICQYLVMRAKRKLGRHLPSRLPEQVELRRVQSLPSVPLSCAAYREALPGWMRNNLSLGDALAKWEECQRQLLLGLFCTNVAFPPEALRMRAPADPAPAPADPASPQHQLAGPAPLLSTPAPEARPVIGALGL
chain 2: METVQELIPLAKEMMAQKRKGKMVKLYVLGSVLALFGVVLGLMETVCSPFTAARRLRDQEAAVAELQAALERQALQKQALQEKGKQQDTVLGGRALSNRQHAS

The assay covers variants of B1. In words: LUMIER: Protein A-ATGL variant and firefly luciferase-partner co-expressed in HEK293T, lysates immunoprecipitated on IgG-coated plates, co-precipitated partner measured as luciferase luminescence. Particulars: with G0S2 (G0/G1 switch protein 2), transient co-transfection, IgG-coated LUMITRAC plates, 2 h at 4 °C, three PBS washes, Bright-Glo luciferase reagent, triplicates per assay, two …, scale: log2 fold change of co-immunoprecipitated luminescence relative to wild-type ATGL within each experiment.

For chain 1 MFPREKTWNISFAGCGFLGVYYVGVASCLREHAPFLVANATHIYGASAGALTATALVTGVCLGEAGAKFIEVSKEARKRFLGPLHPSFNLVKIIRSFLLKVLPADKHEHASGRLGISLTRVSDGENVIISHFNSKDELIQANVCSGFIPVYCGLIPPSLQGVRYVDGGISDNLPLYELKNTITVSPFSGESDICPQDSSTNIHELRVTNTSIQFNLRNLYRLSKALFPPEPLVLREMCKQGYRDGLRFLQRNGLLNRPNPLLALPPARPHGPEDKDQAVESAQAEDYSQLPGEDHILEHLPARLNEALLEACVEPTDLLTTLSNMLPVRLATAMMVPYTLPLESALSFTIRLLEWLPDVPEDIRWMKEQTGSICQYLVMRAKRKLGRHLPSRLPEQVELRRVQSLPSVPLSCAAYREALPGWMRNNLSLGDALAKWEECQRQLLLGLFCTNVAFPPEALRMRAPADPAPAPADPASPQHQLAGPAPLLSTPAPEARPVIGALGL [chain 1 S106K], the screen value runs as follows: (parent: 0.26, not graded) -0.922; (parent: 0.56, not graded) -1.29.
The corresponding values for chain 1 MFPREKTWNISFAGCGFLGVYYVGVASCLREHAPFLVANATHIYGASAGALTATALVTGVCLGEAGAKFIEVSKEARKRFLGPLHPEFNLVKIIRSFLLKVLPADSHEHASGRLGISLTRVSDGENVIISHFNSKDELIQANVCSGFIPVYCGLIPPSLQGVRYVDGGISDNLPLYELKNTITVSPFSGESDICPQDSSTNIHELRVTNTSIQFNLRNLYRLSKALFPPEPLVLREMCKQGYRDGLRFLQRNGLLNRPNPLLALPPARPHGPEDKDQAVESAQAEDYSQLPGEDHILEHLPARLNEALLEACVEPTDLLTTLSNMLPVRLATAMMVPYTLPLESALSFTIRLLEWLPDVPEDIRWMKEQTGSICQYLVMRAKRKLGRHLPSRLPEQVELRRVQSLPSVPLSCAAYREALPGWMRNNLSLGDALAKWEECQRQLLLGLFCTNVAFPPEALRMRAPADPAPAPADPASPQHQLAGPAPLLSTPAPEARPVIGALGL [chain 1 S87E] are -0.559 and -1.39.
On to chain 1 MFPREKTWNISFAGCGFLGVYYVGVASCLREHAPFLVANATHIYGASAGALTATALVTGVCLGEAGAKFIEVSKEARKRFLGPLHPAFNLVKIIRSFLLKVLPADSHEHASGRLGISLTRVSDGENVIISHFNSKDELIQANVCSGFIPVYCGLIPPSLQGVRYVDGGISDNLPLYELKNTITVSPFSGESDICPQDSSTNIHELRVTNTSIQFNLRNLYRLSKALFPPEPLVLREMCKQGYRDGLRFLQRNGLLNRPNPLLALPPARPHGPEDKDQAVESAQAEDYSQLPGEDHILEHLPARLNEALLEACVEPTDLLTTLSNMLPVRLATAMMVPYTLPLESALSFTIRLLEWLPDVPEDIRWMKEQTGSICQYLVMRAKRKLGRHLPSRLPEQVELRRVQSLPSVPLSCAAYREALPGWMRNNLSLGDALAKWEECQRQLLLGLFCTNVAFPPEALRMRAPADPAPAPADPASPQHQLAGPAPLLSTPAPEARPVIGALGL [chain 1 S87A], for which the screen value runs as follows: (parent: 0.26, not graded) -0.675; (parent: 0.56, not graded) -0.33.
Take chain 1 MFPREKTWNISFAGCGFLGVYYVGVASCLREHAPFLVANATHIYGASAGALTATALVTGVCLGEAGAKFIEVSKEARKRFLGPLHPSFNLVKIIRSFLLKVLPADSHEHASGRLGISLTRVSDGENVIISHFNSKDELIQANVCSGFIPVYCGLIPPALQGVRYVDGGISDNLPLYELKNTITVSPFSGESDICPQDSSTNIHELRVTNTSIQFNLRNLYRLSKALFPPEPLVLREMCKQGYRDGLRFLQRNGLLNRPNPLLALPPARPHGPEDKDQAVESAQAEDYSQLPGEDHILEHLPARLNEALLEACVEPTDLLTTLSNMLPVRLATAMMVPYTLPLESALSFTIRLLEWLPDVPEDIRWMKEQTGSICQYLVMRAKRKLGRHLPSRLPEQVELRRVQSLPSVPLSCAAYREALPGWMRNNLSLGDALAKWEECQRQLLLGLFCTNVAFPPEALRMRAPADPAPAPADPASPQHQLAGPAPLLSTPAPEARPVIGALGL [chain 1 S158A]: the screen value was -0.121 (parent: 0.26, not graded) and 0.343 (parent: 0.56, not graded).
Consider chain 1 MFPREKTWNISFAGCGFLGVYYVGVASCLREHAPFLVANATHIYGASAGALTATALVTGVCLGEAGAKFIEVSKEARKRFLGPLHPSFNLVKIIRSFLLKVLPADSHEHASGRLGISLTRVSDGENVIISHFNSKDELIQANVCSGFIPVYCGLIPPSLQGVRYVDGGISDNLPLYELKNTITVSPFSGESDICPQDSSTNIHELRVTNTSIQFNLRNLYRLSKALFPPEPLVLREMCKQGYRDGLRFLQRNGLLNRPNPLLALPPARPHGPEDKDQAVESAQAEDYSQLPGEDHILEHLPARLNEALLEACVEPTDLLTTLSNMLPVELATAMMVPYTLPLESALSFTIRLLEWLPDVPEDIRWMKEQTGSICQYLVMRAKRKLGRHLPSRLPEQVELRRVQSLPSVPLSCAAYREALPGWMRNNLSLGDALAKWEECQRQLLLGLFCTNVAFPPEALRMRAPADPAPAPADPASPQHQLAGPAPLLSTPAPEARPVIGALGL [chain 1 R329E], for which the screen value reads like this: (parent: 0.26, not graded) -0.556; (parent: 0.56, not graded) -0.22.
As for chain 1 MFPREKTWNISFAGCGFLGVYYVGVASCLREHAPFLVANATHIYGASAGALTATALVTGVCLGEAGAKFIEVSKEARKRFLGPLHPSFNLVKIIRSFLLKVLPADSHEHASGRLGISLTRVSDGENVIISHFNSKDELIQANVCSGFIPVYCGLIPPSLQGVRYVDGGISDNLPLYELKNTITVSPFSGESDICPQDSSTNIHELRVTNTSIQFNLRNLYRLSKALFPPEPLVLREMCKQGYRDGLRFLQRNGLLNRPNPLLALPPARPHGPEDKDQAVESAQAEDYSQLPGEDHILEHLPARLNEALLEACVEPTDLLTTLSNMLPVRLATAMMVPYTLPLESALSFTILLLEWLPDVPEDIRWMKEQTGSICQYLVMRAKRKLGRHLPSRLPEQVELRRVQSLPSVPLSCAAYREALPGWMRNNLSLGDALAKWEECQRQLLLGLFCTNVAFPPEALRMRAPADPAPAPADPASPQHQLAGPAPLLSTPAPEARPVIGALGL [chain 1 R351L], the screen value is, setting by setting: (parent: 0.26, not graded) 0.121; (parent: 0.56, not graded) 0.273.
